Measurements from patent US20250066503A1, “CELL INJURY INDUCING THERAPEUTIC DRUG FOR USE IN CANCER THERAPY” (CHUGAI SEIYAKU KABUSHIKI KAISHA, priority 2016, published 2025).

Biological target: T1, soluble human CD3 epsilon chain (human, UniProt P07766 23-126)
T1 construct: also called CD3ε
Test: SPR

T1 sequence (P07766 23-126 limits assumed): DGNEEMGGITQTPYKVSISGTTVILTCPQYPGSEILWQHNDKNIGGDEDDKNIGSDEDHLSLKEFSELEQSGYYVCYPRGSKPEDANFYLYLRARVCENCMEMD

Row | Kd | Binder
1 | 2.81 nM | TR01H040-E22Hh/none-Hi-Kn010G3/L0235-k0 (antibody, V domains shown, one-arm) VH: QVQLVESGGGLVQPGRSLRLSCAASGFTFSNAWMHWVRQAPGKGLEWVAQIKDKSQNYATYYAESVKGRFTISRADSKNSIYLQMNSLKTEDTAVYYCRYVHYSASYGVDAWGQGTTVTVSS VL: DIVMTQSPLSLPVTPGEPASISCRSSQEPVHSNRNTYLHWYQQKPGQAPRLLIYKVSNRFSGVPDRFSGSGSGTDFTLKISRVEAEDVGVYYCYQGTQVPYTFGQGTKLEIK
2 | 5.64 nM | TR01H040-E22Hh/none-Hi-Kn010G3/L0236-k0 (antibody, V domains shown, one-arm) VH: QVQLVESGGGLVQPGRSLRLSCAASGFTFSNAWMHWVRQAPGKGLEWVAQIKDKSQNYATYYAESVKGRFTISRADSKNSIYLQMNSLKTEDTAVYYCRYVHYSASYGVDAWGQGTTVTVSS VL: DIVMTQSPLSLPVTPGEPASISCRSSQEPVHSNRNTYLHWYQQKPGQAPRLLIYKVSNRFWGVPDRFSGSGSGTDFTLKISRVEAEDVGVYYCYQGTQVPYTFGQGTKLEIK
3 | 10.2 nM | TR01H040-E22Hh/none-Hi-Kn010G3/L0237-k0 (antibody, V domains shown, one-arm) VH: QVQLVESGGGLVQPGRSLRLSCAASGFTFSNAWMHWVRQAPGKGLEWVAQIKDKSQNYATYYAESVKGRFTISRADSKNSIYLQMNSLKTEDTAVYYCRYVHYSASYGVDAWGQGTTVTVSS VL: DIVMTQSPLSLPVTPGEPASISCRSSQEPVHSNRNTYIHWYQQKPGQAPRLLIYKVSNRFSGVPDRFSGSGSGTDFTLKISRVEAEDVGVYYCYQGTQVPYTFGQGTKLEIK
4 | 2.91 nM | TR01H040-E22Hh/none-Hi-Kn010G3/L0238-k0 (antibody, V domains shown, one-arm) VH: QVQLVESGGGLVQPGRSLRLSCAASGFTFSNAWMHWVRQAPGKGLEWVAQIKDKSQNYATYYAESVKGRFTISRADSKNSIYLQMNSLKTEDTAVYYCRYVHYSASYGVDAWGQGTTVTVSS VL: DIVMTQSPLSLPVTPGEPASISCRSSEPPVHSNRNTYLHWYQQKPGQAPRLLIYKVSNRFSGVPDRFSGSGSGTDFTLKISRVEAEDVGVYYCYQGTQVPYTFGQGTKLEIK
5 | 23.1 nM | TR01H040-E22Hh/none-Hi-Kn010G3/L0239-k0 (antibody, V domains shown, one-arm) VH: QVQLVESGGGLVQPGRSLRLSCAASGFTFSNAWMHWVRQAPGKGLEWVAQIKDKSQNYATYYAESVKGRFTISRADSKNSIYLQMNSLKTEDTAVYYCRYVHYSASYGVDAWGQGTTVTVSS VL: DIVMTQSPLSLPVTPGEPASISCRSSESPVHSNRNTYLHWYQQKPGQAPRLLIYKVSNRFRGVPDRFSGSGSGTDFTLKISRVEAEDVGVYYCGQGTQVPYTFGQGTKLEIK
6 | 2.17 nM | TR01H040-E22Hh/none-Hi-Kn010G3/L0240-k0 (antibody, V domains shown, one-arm) VH: QVQLVESGGGLVQPGRSLRLSCAASGFTFSNAWMHWVRQAPGKGLEWVAQIKDKSQNYATYYAESVKGRFTISRADSKNSIYLQMNSLKTEDTAVYYCRYVHYSASYGVDAWGQGTTVTVSS VL: DIVMTQSPLSLPVTPGEPASISCRSSESPVHSNRNTYLHWYQQKPGQAPRLLIYKVSNRFSGVPDRFSGSGSGTDFTLKISRVEAEDVGVYYCYQGTQVPYTFGQGTKLEIK
7 | 3.48 nM | TR01H040-E22Hh/none-Hi-Kn010G3/L0241-k0 (antibody, V domains shown, one-arm) VH: QVQLVESGGGLVQPGRSLRLSCAASGFTFSNAWMHWVRQAPGKGLEWVAQIKDKSQNYATYYAESVKGRFTISRADSKNSIYLQMNSLKTEDTAVYYCRYVHYSASYGVDAWGQGTTVTVSS VL: DIVMTQSPLSLPVTPGEPASISCRSSESPVHSNRNTYLHWYQQKPGQAPRLLIYKVSNRFWGVPDRFSGSGSGTDFTLKISRVEAEDVGVYYCYQGTQVPYTFGQGTKLEIK
8 | 3.58 nM | TR01H040-E22Hh/none-Hi-Kn010G3/L0242-k0 (antibody, V domains shown, one-arm) VH: QVQLVESGGGLVQPGRSLRLSCAASGFTFSNAWMHWVRQAPGKGLEWVAQIKDKSQNYATYYAESVKGRFTISRADSKNSIYLQMNSLKTEDTAVYYCRYVHYSASYGVDAWGQGTTVTVSS VL: DIVMTQSPLSLPVTPGEPASISCRSSESPVHSNRNTYIHWYQQKPGQAPRLLIYKVSNRFSGVPDRFSGSGSGTDFTLKISRVEAEDVGVYYCYQGTQVPYTFGQGTKLEIK
9 | 24.6 nM | TR01H040-E22Hh/none-Hi-Kn010G3/L0243-k0 (antibody, V domains shown, one-arm) VH: QVQLVESGGGLVQPGRSLRLSCAASGFTFSNAWMHWVRQAPGKGLEWVAQIKDKSQNYATYYAESVKGRFTISRADSKNSIYLQMNSLKTEDTAVYYCRYVHYSASYGVDAWGQGTTVTVSS VL: DIVMTQSPLSLPVTPGEPASISCRSSEPPVHSNRNTYLHWYQQKPGQAPRLLIYKVSNRFRGVPDRFSGSGSGTDFTLKISRVEAEDVGVYYCGQGTQVPYTFGQGTKLEIK
10 | 92.8 nM | TR01H040-E22Hh/none-Hi-Kn010G3/L0246-k0 (antibody, V domains shown, one-arm) VH: QVQLVESGGGLVQPGRSLRLSCAASGFTFSNAWMHWVRQAPGKGLEWVAQIKDKSQNYATYYAESVKGRFTISRADSKNSIYLQMNSLKTEDTAVYYCRYVHYSASYGVDAWGQGTTVTVSS VL: DIVMTQSPLSLPVTPGEPASISCRSSQSPVHSNRNTYIQWYQQKPGQAPRLLIYKVSNRFSGVPDRFSGSGSGTDFTLKISRVEAEDVGVYYCSQGTQVPYTFGQGTKLEIK
11 | 100 nM | TR01H040-E22Hh/none-Hi-Kn010G3/L0247-k0 (antibody, V domains shown, one-arm) VH: QVQLVESGGGLVQPGRSLRLSCAASGFTFSNAWMHWVRQAPGKGLEWVAQIKDKSQNYATYYAESVKGRFTISRADSKNSIYLQMNSLKTEDTAVYYCRYVHYSASYGVDAWGQGTTVTVSS VL: DIVMTQSPLSLPVTPGEPASISCRSSQSPVHSNRNTYIQWYQQKPGQAPRLLIYKVSNRFSGVPDRFSGSGSGTDFTLKISRVEAEDVGVYYCIQGTQVPYTFGQGTKLEIK
12 | 78.9 nM | TR01H040-E22Hh/none-Hi-Kn010G3/L0248-k0 (antibody, V domains shown, one-arm) VH: QVQLVESGGGLVQPGRSLRLSCAASGFTFSNAWMHWVRQAPGKGLEWVAQIKDKSQNYATYYAESVKGRFTISRADSKNSIYLQMNSLKTEDTAVYYCRYVHYSASYGVDAWGQGTTVTVSS VL: DIVMTQSPLSLPVTPGEPASISCRPSQSPVHSNRNTYIQWYQQKPGQAPRLLIYKVSNRFSGVPDRFSGSGSGTDFTLKISRVEAEDVGVYYCYQGTQVPYTFGQGTKLEIK
13 | 111 nM | TR01H040-E22Hh/none-Hi-Kn010G3/L0249-k0 (antibody, V domains shown, one-arm) VH: QVQLVESGGGLVQPGRSLRLSCAASGFTFSNAWMHWVRQAPGKGLEWVAQIKDKSQNYATYYAESVKGRFTISRADSKNSIYLQMNSLKTEDTAVYYCRYVHYSASYGVDAWGQGTTVTVSS VL: DIVMTQSPLSLPVTPGEPASISCRPSQSPVHSNRNTYIQWYQQKPGQAPRLLIYKVSNRFSGVPDRFSGSGSGTDFTLKISRVEAEDVGVYYCSQGTQVPYTFGQGTKLEIK
14 | 21.5 nM | TR01H040-E22Hh/none-Hi-Kn010G3/L0250-k0 (antibody, V domains shown, one-arm) VH: QVQLVESGGGLVQPGRSLRLSCAASGFTFSNAWMHWVRQAPGKGLEWVAQIKDKSQNYATYYAESVKGRFTISRADSKNSIYLQMNSLKTEDTAVYYCRYVHYSASYGVDAWGQGTTVTVSS VL: DIVMTQSPLSLPVTPGEPASISCRPSQSPVHSNRNTYIQWYQQKPGQAPRLLIYKVSNRFSGVPDRFSGSGSGTDFTLKISRVEAEDVGVYYCIQGTQVPYTFGQGTKLEIK
15 | 18.1 nM | TR01H040-E22Hh/none-Hi-Kn010G3/L0262-k0 (antibody, V domains shown, one-arm) VH: QVQLVESGGGLVQPGRSLRLSCAASGFTFSNAWMHWVRQAPGKGLEWVAQIKDKSQNYATYYAESVKGRFTISRADSKNSIYLQMNSLKTEDTAVYYCRYVHYSASYGVDAWGQGTTVTVSS VL: DIVMTQSPLSLPVTPGEPASISCRSSQPPVHSNRNTYLHWYQQKPGQAPRLLIYKVSNRFSGVPDRFSGSGSGTDFTLKISRVEAEDVGVYYCAQGTQVPYTFGQGTKLEIK
16 | 29.3 nM | TR01H040-E22Hh/none-Hi-Kn010G3/TR01L008-k0 (antibody, V domains shown, one-arm) VH: QVQLVESGGGLVQPGRSLRLSCAASGFTFSNAWMHWVRQAPGKGLEWVAQIKDKSQNYATYYAESVKGRFTISRADSKNSIYLQMNSLKTEDTAVYYCRYVHYSASYGVDAWGQGTTVTVSS VL: DIVMTQSPLSLPVTPGEPASISCQASESLVHSNRNTYLHWYQQKPGQAPRLLIYKVSNRFRGVPDRFSGSGSGTDFTLKISRVEAEDVGVYYCGQGTQVPYTFGQGTKLEIK
17 | 35.6 nM | TR01H040-E22Hh/none-Hi-Kn010G3/TR01L009-k0 (antibody, V domains shown, one-arm) VH: QVQLVESGGGLVQPGRSLRLSCAASGFTFSNAWMHWVRQAPGKGLEWVAQIKDKSQNYATYYAESVKGRFTISRADSKNSIYLQMNSLKTEDTAVYYCRYVHYSASYGVDAWGQGTTVTVSS VL: DIVMTQSPLSLPVTPGEPASISCRSSQSLVHSNRNTYLHWYLQKPGQSPQLLIYKVSNRFRGVPDRFSGSGSGTDFTLKISRVEAEDVGVYYCGQGTQVPYTFGQGTKLEIK
18 | 32.8 nM | TR01H040-E22Hh/none-Hi-Kn010G3/TR01L010-k0 (antibody, V domains shown, one-arm) VH: QVQLVESGGGLVQPGRSLRLSCAASGFTFSNAWMHWVRQAPGKGLEWVAQIKDKSQNYATYYAESVKGRFTISRADSKNSIYLQMNSLKTEDTAVYYCRYVHYSASYGVDAWGQGTTVTVSS VL: DIVMTQSPLSLPVTPGEPASISCRSSQSLVHSNRNTYLHWYQQKPGQAPRLLIYKVSNRFRGVPDRFSGSGSGTDFTLKISRVEAEDVGVYYCGQGTQVPYTFGQGTKVEIE
19 | 39.5 nM | TR01H040-E22Hh/none-Hi-Kn010G3/TR01L015-k0 (antibody, V domains shown, one-arm) VH: QVQLVESGGGLVQPGRSLRLSCAASGFTFSNAWMHWVRQAPGKGLEWVAQIKDKSQNYATYYAESVKGRFTISRADSKNSIYLQMNSLKTEDTAVYYCRYVHYSASYGVDAWGQGTTVTVSS VL: DIVMTQSPLSLPVTPGEPASISCRSSQSPVHSNRNTYLHWYLQKPGQSPQLLIYKVSNRFSGVPDRFSGSGSGTDFTLKISRVEAEDVGVYYCGQGTQVPYTFGQGTKLEIK
20 | 2.52 nM | TR01H040-E22Hh/none-Hi-Kn010G3/TR01L016-k0 (antibody, V domains shown, one-arm) VH: QVQLVESGGGLVQPGRSLRLSCAASGFTFSNAWMHWVRQAPGKGLEWVAQIKDKSQNYATYYAESVKGRFTISRADSKNSIYLQMNSLKTEDTAVYYCRYVHYSASYGVDAWGQGTTVTVSS VL: DIVMTQSPLSLPVTPGEPASISCRSSQSPVHSNRNTYLHWYLQKPGQSPQLLIYKVSNRFSGVPDRFSGSGSGTDFTLKISRVEAEDVGVYYCYQGTQVPYTFGQGTKLEIK
21 | 12.7 nM | TR01H061-E22Hh/none-Hi-Kn010G3/L0200-k0 (antibody, V domains shown, one-arm) VH: QVQLVESGGGLVQPGRSLRLSCAASGFTFSNAWMHWVRQAPGKGLEWVAQIKDKSQNYATYYAESVKGRFTISRADSKNSIYLQMNSLKTEDTAVYYCRYVHYAASYGVDIWGQGTTVTVSS VL: DIVMTQSPLSLPVTPGEPASISCRPSQSPVHSNRNTYLHWYQQKPGQAPRLLIYKVSNRFSGVPDRFSGSGSGTDFTLKISRVEAEDVGVYYCGQGTQVPYTFGQGTKLEIK
22 | 15.4 nM | TR01H061-E22Hh/none-Hi-Kn010G3/L0215-k0 (antibody, V domains shown, one-arm) VH: QVQLVESGGGLVQPGRSLRLSCAASGFTFSNAWMHWVRQAPGKGLEWVAQIKDKSQNYATYYAESVKGRFTISRADSKNSIYLQMNSLKTEDTAVYYCRYVHYAASYGVDIWGQGTTVTVSS VL: DIVMTQSPLSLPVTPGEPASISCRSSQPPVHSNRNTYIHWYQQKPGQAPRLLIYKVSNRFSGVPDRFSGSGSGTDFTLKISRVEAEDVGVYYCGQGTQVPYTFGQGTKLEIK
